The source of these data is patent US12180485B2, “Repressible control of gene expression” (TRUSTEES OF BOSTON UNIVERSITY, priority 2020, dated 2024).

Test [1] has as its system mCherry. As to the kind of experiment: Split Cas13 (559/560) or WTCas13 driven by inducible promoters (NFkB, CAGA12, AP1), mCherry knockdown. The format is cell-based. The settings on record: NFkB promoter with TGFbeta; CAGA12 promoter with TNFalpha; AP1 promoter with PMA. The source says: FIG. 13A-13E is a series of schematics and graphs showing the coupling of split Cas13 (559/560) expression to inducible promoters responsive to endogenous signals. Inducible promoters responsive to endogenous signals drove split Cas13 expression for the construction of AND logic gate. FIG. 13A is a schematic showing the transfection compositions of endogenous signal-responsive promoters (e.g., “short response elements” and “miniP”) driving split Cas13d's. […] FIG. 13E is a series of bar graphs showing that orthogonality among the 3 inducible promoters tested. In FIG. 13B-13D, the left-right order of the bars for each design is the same as the top-down order of the legend for each bar graph, and “NT-gRNA” is non-target gRNA. In FIG. 13E, the left-right order of the bars is the same as the top-down order of the legend for each bar graph.

Another test relates to NFkB promoter. As to the kind of experiment: Orthogonality of inducible promoters driving fluorescent proteins. The format is cell-based. Particulars: PMA is the inducer for AP1 promoter. The source says:
Although the propensity of many Cas13 splits to reconstitute spontaneously has led to leaky knockdown activity when coupled with CID systems, transcriptional control of such splits creates an AND gate logic. Inducible promoters (IP) such as WNT, NFkB, CAGA12, and AP1 promoters are available to orthogonally drive split Cas13 expression. In such design, there can only be target knockdown activity when there is input for both promoters. After verification for the ability of these promoters to inducibly drive gene expression using fluorescent proteins (see e.g., FIG. 13E), experiments were conducted with split RfxCas13d pieces and WT RfxCas13d. The chosen split was 559/560 as this split pair is able to achieve target knockdown efficiency more than 80%, and its knockdown ability surpasses that of WT RfxCas13d when coupled with the GIB CID system. Inducible promoter driving the WT Cas13 serves as the positive control (see e.g., FIG. 13A middle panel; see e.g., setting 3 in FIG. 13B, corresponding to “IP-WT” in FIG. 13B-13D). The highest inducibility among the 3 IPs was 30% inducibility with the promoter CAGA12. […] As such, the aforementioned constructs (e.g., split recombinase and IPs) can be integrated into AAVS1 sites and their performance evaluated.

In test [2] the test system is mCherry expression in HEK 293 FT cells. As to the kind of experiment: Cas13d/gRNA mCherry knockdown, transient transfection, flow cytometry. The format is cell-based. The settings on record: mCherry expression at various levels. The source says: FIG. 4A-4D is a series of schematics and graphs showing that Cas13d achieved robust transgene knockdown in HEK 293 FT cells. FIG. 4A is a schematic showing the necessary components for the CRISPR/Cas13d system. […] Minimizing either one component led to the abolishment of knockdown ability.
In order to gain better understanding of the activity of the Cas13 effector/gRNA system, it was first examined how variation in the expression of each components (e.g., target, guide, and/or effector protein) relate to the knockdown efficiency of the system. HEK 293 FT cells were transiently transfected with the components of the system, and expression of the targeted gene, mCherry, was tested using flow cytometry. […] Another important feature of Cas13d is its ability to process pre-mature gRNA arrays and achieve multiplexed gene targeting. To verify this, pre-gRNAs with spacer regions flanked by 2 direct repeat sequences were transfected with Cas13d into HEK 293 FT cells. Target gene knockdown was later quantified and compared to that by mature gRNAs.

Test [3] deals with bystander fluorescent proteins (GFP, BFP, iRFP). As to the kind of experiment: Collateral cleavage of bystander fluorescent proteins by Cas13d during mCherry on-target knockdown. The format is cell-based. The source says:
FIG. 5A-5C is a series of schematics and graphs showing collateral activity of Cas13d. […] As the plasmid dosage of the bystander fluorescent protein decreased, bystander expression was knocked down at a higher level.
The green fluorescent protein (GFP) was used initially as a transfection marker and as a non-targeted gene expression control. […] GFP was knocked down by Cas13d only when mCherry was present, confirming that this is a collateral activity instead of a result from non-specific gRNA design.

Test [4] has as its system mCherry reporter and endogenous transcripts in HEK293T cells. Particulars: cited from earlier work.
The test system of test [5] is mCherry. As to the kind of experiment: mCherry knockdown by inducible split RfxCas13d (ON switch) in transfected HEK 293 FT cells, flow cytometry. The format is cell-based.
The subject of another test is HLA-A2. As to the kind of experiment: Endogenous gene knockdown: HLA-A2 antibody staining of HEK 293FT cells transfected with B2M targeting gRNA, flow cytometry. The format is cell-based. The settings on record: RAP inducible split pair, compared with WT RfxCas13.

Entries after “also recorded” stand apart in the source; their conditions may differ.

In the case of `CCCCCCCCCCCCCC(=O)O[C@@H]1[C@@H](C)[C@@]2(O)[C@@H](C=C(CO)C[C@]3(O)C(=O)C(C)=C[C@@H]23)[C@@H]2C(C)(C)[C@]12OC(C)=O` [PMA, reference compound], the “mCherry knockdown by split Cas13d or WTCas13 expressed from inducible promoter” value with mCherry [1] was “induced mCherry knockdown”. In the test with NFkB promoter, the “activation of NFkB inducible promoter” value was “turned on”.

B1: Cas13d: type VI-D CRISPR-associated RNA-guided ribonuclease Cas13d Ruminococcus flavefaciens, SEQ ID NO: 1 (protein, listed as Ruminococcus flavefaciens)
chain: IEKKKSFAKGMGVKSTLVSGSKVYMTTFAEGSDARLEKIVEGDSIRSVNEGEAFSAEMADKNAGYKIGNAKFSHPKGYAVVANNPLYTGPVQQDMLGLKETLEKRYFGESADGNDNICIQVIHNILDIEKILAEYITNAAYAVNNISGLDKDIIGFGKFSTVYTYDEFKDPEHHRAAFNNNDKLINAIKAQYDEFDNFLDNPRLGYFGQAFFSKEGRNYIINYGNECYDILALLSGLRHWVVHNNEEESRISRTWLYNLDKNLDNEYISTLNYLYDRITNELTNSFSKNSAANVNYIAETLGINPAEFAEQYFRFSIMKEQKNLGFNITKLREVMLDRKDMSEIRKNHKVFDSIRTKVYTMMDFVIYRYYIEEDAKVAAANKSLPDNEKSLSEKDIFVINLRGSFNDDQKDALYYDEANRIWRKLENIMHNIKEFRGNKTREYKKKDAPRLPRILPAGRDVSAFSKLMYALTMFLDGKEINDLLTTLINKFDNIQSFLKVMPLIGVNAKFVEEYAFFKDSAKIADELRLIKSFARMGEPIADARRAMYIDAIRILGTNLSYDELKALADTFSLDENGNKLKKGKHGMRNFIINNVISNKRFHYLIRYGDPAHLHEIAKNEAVVKFVLGRIADIQKKQGQNGKNQIDRYYETCIGKDKGKSVSEKVDALTKIITGMNYDQFDKKRSVIEDTGRENAEREKFKKIISLYLTVIYHILKNIVNINARYVIGFHCVERDAQLYKEKGYDINLKKLEEKGFSSVTKLCAGIDETAPDKRKDVEKEMAERAKESIDSLESANPKLYANYIKYSDEKKAEEFTRQINREKAKTALNAYLRNTKWNVIIREDLLRIDNKTCTLFRNKAVHLEVARYVHAYINDIAEVNSYFQLYHYIMQRIIMNERYEKSSGKVSEYFDAVNDEKKYNDRLLKLLCVPFGYCIPRFKNLSIEALFDRNEAAKFDKEKKKVSGNS
Turning to B1, the mCherry knockdown efficiency result in test [2] is “around 80%”. Moreover, in test [3] (mCherry on-target knockdown by Cas13d), the “effect on bystander iRFP expression” value is on record as “least disturbed; also recorded: minimally affected”. In addition, the “effect on bystander BFP expression” value in test [3] (mCherry targeting Cas13d system) is listed as “strongly affected”. Moreover, in test [3] (mCherry targeting Cas13d system, mCherry present), the “effect on bystander GFP expression” value was “knocked down along with mCherry”. In addition, the knockdown efficiency in test [4] (HEK293T cells, mCherry reporter and endogenous transcripts) is 80-95%. In test [4] (mammalian cells), the “knockdown of mCherry and endogenous gene expression” value is 85-90%.

B2: 565/566: RfxCas13d split between residues 565/566; N and C fragments plain or fused to CID domains (protein)
chain 1: IEKKKSFAKGMGVKSTLVSGSKVYMTTFAEGSDARLEKIVEGDSIRSVNEGEAFSAEMADKNAGYKIGNAKFSHPKGYAVVANNPLYTGPVQQDMLGLKETLEKRYFGESADGNDNICIQVIHNILDIEKILAEYITNAAYAVNNISGLDKDIIGFGKFSTVYTYDEFKDPEHHRAAFNNNDKLINAIKAQYDEFDNFLDNPRLGYFGQAFFSKEGRNYIINYGNECYDILALLSGLRHWVVHNNEEESRISRTWLYNLDKNLDNEYISTLNYLYDRITNELTNSFSKNSAANVNYIAETLGINPAEFAEQYFRFSIMKEQKNLGFNITKLREVMLDRKDMSEIRKNHKVFDSIRTKVYTMMDFVIYRYYIEEDAKVAAANKSLPDNEKSLSEKDIFVINLRGSFNDDQKDALYYDEANRIWRKLENIMHNIKEFRGNKTREYKKKDAPRLPRILPAGRDVSAFSKLMYALTMFLDGKEINDLLTTLINKFDNIQSFLKVMPLIGVNAKFVEEYAFFKDSAKIADELRLIKSFARMGEPIADARRAMYIDAIRILGTNLSYDELK
chain 2: ALADTFSLDENGNKLKKGKHGMRNFIINNVISNKRFHYLIRYGDPAHLHEIAKNEAVVKFVLGRIADIQKKQGQNGKNQIDRYYETCIGKDKGKSVSEKVDALTKIITGMNYDQFDKKRSVIEDTGRENAEREKFKKIISLYLTVIYHILKNIVNINARYVIGFHCVERDAQLYKEKGYDINLKKLEEKGFSSVTKLCAGIDETAPDKRKDVEKEMAERAKESIDSLESANPKLYANYIKYSDEKKAEEFTRQINREKAKTALNAYLRNTKWNVIIREDLLRIDNKTCTLFRNKAVHLEVARYVHAYINDIAEVNSYFQLYHYIMQRIIMNERYEKSSGKVSEYFDAVNDEKKYNDRLLKLLCVPFGYCIPRFKNLSIEALFDRNEAAKFDKEKKKVSGNS
Take B2: the “performance after NES/NLS compartmentalization” value with mCherry [5] (GIB induced split pairs, NES on one moiety, NLS on the other) was “high inducibility with minimal leakiness”. Also, in the test on mCherry [5] (GIB: N ss-GAI/GID-ss C, ABA: N ss-PYL/ABI-ss C), the “performance of reversed CID orientation versus original orientation” value is “stronger inducibility and weaker leakiness”. Moreover, the “knockdown across the various CID systems” value in the test with mCherry [5] (split pairs coupled with CID domains, with inducer) is “efficient knockdown; also recorded: consistently strong drug-induced knockdown”. The “decrease in HLA-A2 expression level” value in the test on HLA-A2 was “comparable decrease in HLA-A2 expression level”.
